Source: paper PMC11946513, “Modulation of the substrate preference of a MYST acetyltransferase by a scaffold protein” (The Journal of Biological Chemistry, 2025)

What was measured:
[1] = target: full-length KAT6A (KAT6A^FL) (human) (UniProt Q92794)
[2] = target: KAT6A MYST domain (KAT6A 501-784) (human) (UniProt Q92794)
[3] = target: KAT6A^FL 4-protein complex (KAT6A^FL 4-plex) (UniProt Q92794)
[4] = target: KAT6A^FL-BRPF1 2-protein complex (KAT6A^FL 2-plex) (human) (UniProt Q92794)
Chain of KAT6A^FL-BRPF1 2-protein complex (KAT6A^FL 2-plex) (human) (Q92794 whole entry, chain 1 of 2): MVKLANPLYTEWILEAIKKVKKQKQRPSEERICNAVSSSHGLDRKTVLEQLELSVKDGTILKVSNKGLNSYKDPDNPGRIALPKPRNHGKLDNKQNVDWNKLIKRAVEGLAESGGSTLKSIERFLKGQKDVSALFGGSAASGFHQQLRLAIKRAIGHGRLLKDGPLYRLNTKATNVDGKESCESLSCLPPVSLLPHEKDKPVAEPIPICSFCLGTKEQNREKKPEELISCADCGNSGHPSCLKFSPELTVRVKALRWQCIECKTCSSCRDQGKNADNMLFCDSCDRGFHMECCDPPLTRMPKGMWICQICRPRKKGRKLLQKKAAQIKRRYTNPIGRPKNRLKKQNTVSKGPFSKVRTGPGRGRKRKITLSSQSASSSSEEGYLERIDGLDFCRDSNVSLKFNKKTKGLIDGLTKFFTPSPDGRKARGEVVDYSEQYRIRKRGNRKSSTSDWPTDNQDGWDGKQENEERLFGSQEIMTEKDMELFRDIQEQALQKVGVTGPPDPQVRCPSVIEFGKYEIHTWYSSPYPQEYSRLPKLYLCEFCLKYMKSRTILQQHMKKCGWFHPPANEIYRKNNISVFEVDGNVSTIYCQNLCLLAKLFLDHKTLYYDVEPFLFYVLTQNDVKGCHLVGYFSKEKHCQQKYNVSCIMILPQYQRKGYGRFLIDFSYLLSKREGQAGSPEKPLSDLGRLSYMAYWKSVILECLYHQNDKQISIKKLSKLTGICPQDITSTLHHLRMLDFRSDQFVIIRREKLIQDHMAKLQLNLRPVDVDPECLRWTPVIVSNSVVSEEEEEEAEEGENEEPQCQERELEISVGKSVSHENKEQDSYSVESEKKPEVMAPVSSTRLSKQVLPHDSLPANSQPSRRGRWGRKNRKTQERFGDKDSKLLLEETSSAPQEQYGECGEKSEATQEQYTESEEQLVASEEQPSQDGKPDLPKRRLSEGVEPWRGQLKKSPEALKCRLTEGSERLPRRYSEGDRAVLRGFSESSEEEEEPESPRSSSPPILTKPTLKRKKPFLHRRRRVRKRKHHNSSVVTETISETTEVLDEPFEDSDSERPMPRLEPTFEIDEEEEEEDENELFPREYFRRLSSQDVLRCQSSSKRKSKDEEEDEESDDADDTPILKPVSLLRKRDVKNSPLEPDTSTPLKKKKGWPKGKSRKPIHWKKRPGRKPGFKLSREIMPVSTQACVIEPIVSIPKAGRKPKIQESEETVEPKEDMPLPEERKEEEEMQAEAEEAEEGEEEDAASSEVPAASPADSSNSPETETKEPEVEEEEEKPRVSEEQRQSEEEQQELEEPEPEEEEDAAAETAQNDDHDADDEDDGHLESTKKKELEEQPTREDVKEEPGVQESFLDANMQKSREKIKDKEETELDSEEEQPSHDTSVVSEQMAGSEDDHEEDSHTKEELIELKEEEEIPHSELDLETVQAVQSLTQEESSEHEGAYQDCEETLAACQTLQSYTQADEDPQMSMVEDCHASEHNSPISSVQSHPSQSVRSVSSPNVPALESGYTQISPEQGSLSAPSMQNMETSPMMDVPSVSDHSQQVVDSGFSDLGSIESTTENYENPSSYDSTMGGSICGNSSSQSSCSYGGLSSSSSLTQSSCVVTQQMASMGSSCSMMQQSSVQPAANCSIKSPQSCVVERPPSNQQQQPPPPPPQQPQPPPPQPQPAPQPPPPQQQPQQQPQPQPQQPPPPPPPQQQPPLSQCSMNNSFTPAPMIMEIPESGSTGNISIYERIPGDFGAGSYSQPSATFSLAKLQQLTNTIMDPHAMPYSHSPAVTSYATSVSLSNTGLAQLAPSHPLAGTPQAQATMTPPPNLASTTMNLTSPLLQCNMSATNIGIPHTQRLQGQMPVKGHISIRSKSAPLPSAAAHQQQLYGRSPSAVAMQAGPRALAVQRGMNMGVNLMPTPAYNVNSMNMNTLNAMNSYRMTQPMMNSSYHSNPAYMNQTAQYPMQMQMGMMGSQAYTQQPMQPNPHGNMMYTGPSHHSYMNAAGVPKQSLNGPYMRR
Chain of KAT6A^FL-BRPF1 2-protein complex (KAT6A^FL 2-plex) (human) (P55201 whole entry, chain 2 of 2, further chain): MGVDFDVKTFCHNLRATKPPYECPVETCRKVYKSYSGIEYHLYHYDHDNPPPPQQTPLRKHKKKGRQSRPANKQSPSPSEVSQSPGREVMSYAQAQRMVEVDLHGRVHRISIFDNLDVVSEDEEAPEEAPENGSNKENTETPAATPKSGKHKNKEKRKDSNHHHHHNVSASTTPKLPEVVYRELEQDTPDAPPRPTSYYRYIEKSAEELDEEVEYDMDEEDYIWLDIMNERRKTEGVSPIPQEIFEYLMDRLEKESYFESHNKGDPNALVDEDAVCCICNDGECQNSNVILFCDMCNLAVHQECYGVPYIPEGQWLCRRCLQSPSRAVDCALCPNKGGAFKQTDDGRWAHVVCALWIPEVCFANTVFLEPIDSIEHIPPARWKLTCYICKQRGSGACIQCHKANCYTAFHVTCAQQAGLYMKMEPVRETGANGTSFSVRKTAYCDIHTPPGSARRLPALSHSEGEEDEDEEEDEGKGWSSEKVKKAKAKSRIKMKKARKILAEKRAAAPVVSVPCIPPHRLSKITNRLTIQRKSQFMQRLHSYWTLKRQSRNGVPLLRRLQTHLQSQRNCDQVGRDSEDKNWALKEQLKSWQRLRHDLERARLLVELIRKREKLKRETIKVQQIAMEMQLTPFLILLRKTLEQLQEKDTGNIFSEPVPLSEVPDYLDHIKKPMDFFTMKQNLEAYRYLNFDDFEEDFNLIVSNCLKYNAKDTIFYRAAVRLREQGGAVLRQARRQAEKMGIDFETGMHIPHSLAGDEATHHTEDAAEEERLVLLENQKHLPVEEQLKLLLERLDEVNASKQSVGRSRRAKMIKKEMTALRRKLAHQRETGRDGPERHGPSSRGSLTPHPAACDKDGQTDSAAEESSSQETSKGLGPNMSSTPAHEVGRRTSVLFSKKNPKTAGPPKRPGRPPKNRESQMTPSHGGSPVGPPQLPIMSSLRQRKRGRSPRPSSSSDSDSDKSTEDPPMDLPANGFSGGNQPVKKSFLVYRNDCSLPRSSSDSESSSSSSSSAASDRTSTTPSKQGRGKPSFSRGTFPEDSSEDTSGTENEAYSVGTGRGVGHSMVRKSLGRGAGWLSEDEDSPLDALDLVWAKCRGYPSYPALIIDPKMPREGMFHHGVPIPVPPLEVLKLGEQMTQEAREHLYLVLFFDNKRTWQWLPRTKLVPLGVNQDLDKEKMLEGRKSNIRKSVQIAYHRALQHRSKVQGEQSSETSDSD

Chain of KAT6A MYST domain (KAT6A 501-784) (human) (Q92794 501-784): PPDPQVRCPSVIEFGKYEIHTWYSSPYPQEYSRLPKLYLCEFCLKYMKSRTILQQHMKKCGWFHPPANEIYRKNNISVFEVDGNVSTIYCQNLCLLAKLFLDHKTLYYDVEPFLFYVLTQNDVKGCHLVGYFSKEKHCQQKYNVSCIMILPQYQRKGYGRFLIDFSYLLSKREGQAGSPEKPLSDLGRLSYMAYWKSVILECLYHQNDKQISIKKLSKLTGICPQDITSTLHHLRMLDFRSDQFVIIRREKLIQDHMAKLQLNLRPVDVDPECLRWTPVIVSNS
Chain of full-length KAT6A (KAT6A^FL) (human) (Q92794 whole entry, the tested form may be a part): as the sequence (Q92794 whole entry, chain 1 of 2) above
Chain of KAT6A^FL 4-protein complex (KAT6A^FL 4-plex) (Q92794 whole entry, looked up, one chain of several): as the sequence (Q92794 whole entry, chain 1 of 2) above

| KM of steady-state acetylation of the peptide (CoA formation by MS; 20 μM AcCoA, 25 °C) [1] [µM] | KM of steady-state acetylation of the peptide (CoA formation by MS; 20 μM AcCoA, 25 °C) [2] [µM] | KM of steady-state acetylation of the peptide (CoA formation by MS; 20 μM AcCoA, 25 °C) [3] [µM] | KM of steady-state acetylation of the peptide (CoA formation by MS; 20 μM AcCoA, 25 °C) [4] [µM] | Substance |
| --- | --- | --- | --- | --- |
| 16 | 380 |  |  | H3 (1-21) (peptide) |
| 3.2 | 130 |  |  | H3.3 (1-43) (peptide) |
| 30 | 360 | 16 | 13 | H3.3 (15-36) (peptide) |
